Source: PMC9482650, “Quantitative fragmentomics allow affinity mapping of interactomes” (Nature Communications, 2022)

T1: DFNB31_1, Q9P202
T1 sequence (Q9P202 135-233, limits assumed, looked up): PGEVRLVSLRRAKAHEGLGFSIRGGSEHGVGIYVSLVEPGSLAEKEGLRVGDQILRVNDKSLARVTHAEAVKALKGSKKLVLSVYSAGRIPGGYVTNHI

T2: LIN7C, Q9NUP9
T2 sequence (Q9NUP9 88-185, limits assumed, looked up): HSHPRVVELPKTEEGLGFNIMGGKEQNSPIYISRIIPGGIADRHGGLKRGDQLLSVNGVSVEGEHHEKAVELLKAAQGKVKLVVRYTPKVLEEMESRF

T3: LRRC7, Q96NW7
T3 sequence (Q96NW7 1440-1537, limits assumed, looked up): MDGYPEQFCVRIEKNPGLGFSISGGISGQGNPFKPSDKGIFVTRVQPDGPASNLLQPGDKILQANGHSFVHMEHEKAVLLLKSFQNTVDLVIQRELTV

T4: MPDZ_12, O75970
T4 sequence (O75970 1857-1958, limits assumed, looked up): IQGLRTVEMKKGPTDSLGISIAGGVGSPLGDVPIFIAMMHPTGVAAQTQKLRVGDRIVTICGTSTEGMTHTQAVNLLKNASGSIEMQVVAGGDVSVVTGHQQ

T5: RHPN1, Q8TCX5
T5 sequence (Q8TCX5 508-602, limits assumed, looked up): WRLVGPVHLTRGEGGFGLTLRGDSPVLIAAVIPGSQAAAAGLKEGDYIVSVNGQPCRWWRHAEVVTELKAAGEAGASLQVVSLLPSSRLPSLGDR

T6: SHANK1, Q9Y566
T6 sequence (Q9Y566 658-767, limits assumed, looked up): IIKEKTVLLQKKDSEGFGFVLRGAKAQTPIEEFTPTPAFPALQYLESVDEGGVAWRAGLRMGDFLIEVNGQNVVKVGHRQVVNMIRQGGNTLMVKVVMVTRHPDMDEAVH

T7: SNTG2, Q9NY99
T7 sequence (Q9NY99 68-166, limits assumed, looked up): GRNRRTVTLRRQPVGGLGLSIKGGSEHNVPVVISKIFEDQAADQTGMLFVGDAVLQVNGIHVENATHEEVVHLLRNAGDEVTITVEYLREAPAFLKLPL

T8: SYNJ2BP, P57105
T8 sequence (P57105 8-110, limits assumed, looked up): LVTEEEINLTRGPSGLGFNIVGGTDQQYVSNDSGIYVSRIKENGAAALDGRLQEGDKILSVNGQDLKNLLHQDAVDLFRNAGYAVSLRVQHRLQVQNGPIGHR

T9: TJP3_3, O95049
T9 sequence (O95049 375-456, limits assumed, looked up): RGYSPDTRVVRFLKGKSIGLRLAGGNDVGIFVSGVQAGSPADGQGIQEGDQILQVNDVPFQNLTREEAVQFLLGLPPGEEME


Key:
Test in all cases: holdup assay
Set-up in all cases: key: below the threshold = too weak to quantify, mostly under pKd 3.1 to 4
Conditions in all cases: plain residues with an end cap or a label only (N-terminal biotin on a linker: ado-ado)
DFNB31_1, Q9P202 = biological target: T1, DFNB31_1, Q9P202
DLG1_2, Q12959 = biological target: DLG1_2, Q12959
Sequence of DLG1_2, Q12959 (Q12959 314-412): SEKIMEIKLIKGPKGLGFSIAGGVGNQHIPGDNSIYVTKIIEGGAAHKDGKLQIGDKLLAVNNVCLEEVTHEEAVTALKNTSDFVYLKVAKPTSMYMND

DLG4_2, P78352 = biological target: DLG4_2, P78352
Sequence of DLG4_2, P78352 (P78352 155-259): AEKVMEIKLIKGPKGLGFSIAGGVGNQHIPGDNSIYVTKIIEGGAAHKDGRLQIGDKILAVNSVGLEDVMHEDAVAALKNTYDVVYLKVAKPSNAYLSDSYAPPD

FRMPD2_1, Q68DX3 = biological target: FRMPD2_1, Q68DX3
Sequence of FRMPD2_1, Q68DX3 (Q68DX3 770-861): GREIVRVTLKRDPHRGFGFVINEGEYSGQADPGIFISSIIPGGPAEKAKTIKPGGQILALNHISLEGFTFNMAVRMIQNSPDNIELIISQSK

FRMPD2_3, Q68DX3 = biological target: FRMPD2_3, Q68DX3
Sequence of FRMPD2_3, Q68DX3 (Q68DX3 1073-1166): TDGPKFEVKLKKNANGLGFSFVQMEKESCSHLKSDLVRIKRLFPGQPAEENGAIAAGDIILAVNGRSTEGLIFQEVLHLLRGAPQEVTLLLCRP

FRMPD3, Q5JV73 = biological target: FRMPD3, Q5JV73
Sequence of FRMPD3, Q5JV73 (Q5JV73 12-100): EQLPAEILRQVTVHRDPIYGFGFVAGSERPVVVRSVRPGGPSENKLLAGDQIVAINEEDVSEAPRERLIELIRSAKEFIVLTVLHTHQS

FRMPD4, Q14CM0 = biological target: FRMPD4, Q14CM0
Sequence of FRMPD4, Q14CM0 (Q14CM0 67-160): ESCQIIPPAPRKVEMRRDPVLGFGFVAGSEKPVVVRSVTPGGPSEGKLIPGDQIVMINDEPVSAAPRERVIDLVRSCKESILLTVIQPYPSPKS

HTRA2, O43464 = biological target: HTRA2, O43464
Sequence of HTRA2, O43464 (O43464 355-458): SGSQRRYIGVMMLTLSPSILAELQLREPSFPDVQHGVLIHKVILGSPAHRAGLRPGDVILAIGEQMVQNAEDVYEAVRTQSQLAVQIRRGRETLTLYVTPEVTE

IL16_3, Q14005 = biological target: IL16_3, Q14005
Sequence of IL16_3, Q14005 (Q14005 1107-1207): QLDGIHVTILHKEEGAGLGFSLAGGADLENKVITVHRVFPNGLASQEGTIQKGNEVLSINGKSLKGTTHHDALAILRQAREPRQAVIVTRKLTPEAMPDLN

Inadl_10, Q8NI35 = biological target: Inadl_10, Q8NI35
Sequence of Inadl_10, Q8NI35 (Q8NI35 1673-1763): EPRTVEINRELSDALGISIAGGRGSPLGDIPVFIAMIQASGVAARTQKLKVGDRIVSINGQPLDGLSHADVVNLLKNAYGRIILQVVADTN

Inadl_5, Q8NI35 = biological target: Inadl_5, Q8NI35
Sequence of Inadl_5, Q8NI35 (Q8NI35 673-780): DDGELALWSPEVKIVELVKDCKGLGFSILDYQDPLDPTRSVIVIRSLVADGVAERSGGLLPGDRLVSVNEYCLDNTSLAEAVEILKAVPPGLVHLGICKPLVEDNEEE

Inadl_8, Q8NI35 = biological target: Inadl_8, Q8NI35
Sequence of Inadl_8, Q8NI35 (Q8NI35 1425-1530): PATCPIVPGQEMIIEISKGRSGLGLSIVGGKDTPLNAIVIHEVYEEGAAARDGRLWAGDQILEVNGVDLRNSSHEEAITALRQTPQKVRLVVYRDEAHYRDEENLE

LIN7C, Q9NUP9 = biological target: T2, LIN7C, Q9NUP9
LNX1_1, Q8TBB1 = biological target: LNX1_1, Q8TBB1
Sequence of LNX1_1, Q8TBB1 (Q8TBB1 261-371): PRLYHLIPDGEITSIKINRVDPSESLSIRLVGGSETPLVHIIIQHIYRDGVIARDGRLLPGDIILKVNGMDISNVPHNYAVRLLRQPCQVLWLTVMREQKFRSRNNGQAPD

LRRC7, Q96NW7 = biological target: T3, LRRC7, Q96NW7
MAGI1_1, Q96QZ7 = biological target: MAGI1_1, Q96QZ7
Sequence of MAGI1_1, Q96QZ7 (Q96QZ7 1-106): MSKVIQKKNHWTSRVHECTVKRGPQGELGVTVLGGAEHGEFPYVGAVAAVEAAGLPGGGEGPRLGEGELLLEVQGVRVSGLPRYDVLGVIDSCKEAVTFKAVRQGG

MAGI3_2, Q5TCQ9 = biological target: MAGI3_2, Q5TCQ9
Sequence of MAGI3_2, Q5TCQ9 (Q5TCQ9 398-503): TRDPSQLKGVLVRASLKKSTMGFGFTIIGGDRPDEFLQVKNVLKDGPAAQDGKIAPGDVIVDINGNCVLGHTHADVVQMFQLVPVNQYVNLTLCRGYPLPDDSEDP

MPDZ_12, O75970 = biological target: T4, MPDZ_12, O75970
NHERF4_1, Q86UT5-2 = biological target: NHERF4_1, Q86UT5-2
Sequence of NHERF4_1, Q86UT5-2 (Q86UT5 other isoform, or with tags, fused parts or gaps): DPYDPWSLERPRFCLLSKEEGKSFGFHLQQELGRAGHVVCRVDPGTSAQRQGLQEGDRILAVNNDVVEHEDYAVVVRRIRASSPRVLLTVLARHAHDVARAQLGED

PDZRN4_1, Q6ZMN7 = biological target: PDZRN4_1, Q6ZMN7
Sequence of PDZRN4_1, Q6ZMN7 (Q6ZMN7 213-318): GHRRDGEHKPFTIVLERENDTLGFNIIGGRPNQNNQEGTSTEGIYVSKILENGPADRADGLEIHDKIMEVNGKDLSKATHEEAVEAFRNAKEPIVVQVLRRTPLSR

PICK1, Q9NRD5 = biological target: PICK1, Q9NRD5
Sequence of PICK1, Q9NRD5 (Q9NRD5 17-115): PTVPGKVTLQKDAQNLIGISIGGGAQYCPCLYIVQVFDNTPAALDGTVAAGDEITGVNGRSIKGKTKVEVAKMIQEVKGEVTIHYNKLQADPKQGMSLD

RHPN1, Q8TCX5 = biological target: T5, RHPN1, Q8TCX5
SCRIB_2, Q14160 = biological target: SCRIB_2, Q14160
Sequence of SCRIB_2, Q14160 (Q14160 857-960): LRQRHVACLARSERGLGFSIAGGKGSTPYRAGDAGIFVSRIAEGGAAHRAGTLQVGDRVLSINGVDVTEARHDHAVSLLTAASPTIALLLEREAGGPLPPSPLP

SHANK1, Q9Y566 = biological target: T6, SHANK1, Q9Y566
SNTG2, Q9NY99 = biological target: T7, SNTG2, Q9NY99
SYNJ2BP, P57105 = biological target: T8, SYNJ2BP, P57105
TJP2_1, Q9UDY2 = biological target: TJP2_1, Q9UDY2
Sequence of TJP2_1, Q9UDY2 (Q9UDY2 24-128): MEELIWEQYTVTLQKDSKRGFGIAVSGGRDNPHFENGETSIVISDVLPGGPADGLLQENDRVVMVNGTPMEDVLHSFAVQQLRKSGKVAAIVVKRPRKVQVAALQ

TJP3_3, O95049 = biological target: T9, TJP3_3, O95049

Binder | pKd (DFNB31_1, Q9P202) | pKd (DLG1_2, Q12959) | pKd (DLG4_2, P78352) | pKd (FRMPD2_1, Q68DX3) | pKd (FRMPD2_3, Q68DX3) | pKd (FRMPD3, Q5JV73) | pKd (FRMPD4, Q14CM0) | pKd (HTRA2, O43464) | pKd (IL16_3, Q14005) | pKd (Inadl_10, Q8NI35) | pKd (Inadl_5, Q8NI35) | pKd (Inadl_8, Q8NI35) | pKd (LIN7C, Q9NUP9) | pKd (LNX1_1, Q8TBB1) | pKd (LRRC7, Q96NW7) | pKd (MAGI1_1, Q96QZ7) | pKd (MAGI3_2, Q5TCQ9) | pKd (MPDZ_12, O75970) | pKd (NHERF4_1, Q86UT5-2) | pKd (PDZRN4_1, Q6ZMN7) | further results
TNSRHGETTV [FZD2, Q14332] | 3.78 | 5.17 | 4.92 | 3.6 | 3.62 | below the threshold | below the threshold | below the threshold | below the threshold | below the threshold | below the threshold | 3.57 | 4.6 | below the threshold | below the threshold | below the threshold | 5.11 | below the threshold | below the threshold | 4.18 | pKd (PICK1, Q9NRD5): below the threshold; pKd (RHPN1, Q8TCX5): 4.16; pKd (SCRIB_2, Q14160): 4.42; pKd (SHANK1, Q9Y566): below the threshold; pKd (SNTG2, Q9NY99): 4.29; pKd (SYNJ2BP, P57105): 5.08; pKd (TJP2_1, Q9UDY2): below the threshold; pKd (TJP3_3, O95049): below the threshold
STKRKLASAV [NCF1, P14598] | below the threshold | 4.61 | 4.51 | below the threshold | below the threshold | below the threshold | below the threshold | below the threshold | below the threshold | below the threshold | below the threshold | 4.46 | below the threshold | below the threshold | below the threshold | below the threshold | 5.35 | 3.52 | below the threshold | below the threshold | pKd (PICK1, Q9NRD5): below the threshold; pKd (RHPN1, Q8TCX5): below the threshold; pKd (SCRIB_2, Q14160): below the threshold; pKd (SHANK1, Q9Y566): below the threshold; pKd (SNTG2, Q9NY99): below the threshold; pKd (SYNJ2BP, P57105): 4.85; pKd (TJP2_1, Q9UDY2): below the threshold; pKd (TJP3_3, O95049): below the threshold
